# B1: GvpF fused to NGFP or CGFP (split-GFP) [Halobacterium salinarum PHH1] / GvpA fused to NGFP or CGFP (split-GFP) [Halobacterium salinarum PHH1] (parent complex)
# chain 1: MTENLYTYGIIEQEDLELDVEGVAGAEQVYTVDYKTLSAVVSDIDTTDPERTDEDVEAHNNVLQEVLKHEEERTVVPMSFGMAFKSARTLKGVLRGARRALRSTLNDIEGTVELGVKILGPGDDTVPREEIQENVTDQLADLSINETENDLFTDRLIINKSYLVDFEKRDAFDSAIDDVEAEYDELTIQYTGPWPPYNFVDIHIGAEQQQGGR
# chain 2: MAQPDSSGLAEVLDRVLDKGVVVDVWARVSLVGIEILTVEARVVAASVDTFLHYAEEIAKIEQAELTAGAEAAPEA
# Variants of: B1
# Assay: split-GFP; in Hfx. volcanii; FN fusion protein used as interaction partner; two biological and three technical replicates; parent: 20; read off a plot
row,Variant,response [relative fluorescence]
1,chain 2 R42E,~12
2,chain 2 A27E,~5.2
3,chain 2 I61A,~16
4,chain 2 V29D,~19
5,chain 2 H53A,~12
6,chain 2 E11A,~11
7,chain 2 D5A,~10
8,chain 2 D14A,~13
9,chain 2 K19A,~9.8
10,chain 2 W26A,~19
11,chain 2 L17A,~13
12,chain 2 G33V,~5.6
13,chain 2 A46Y,~11
14,chain 2 E65A,~13
15,chain 2 A41E,~19
16,chain 2 R42A,~12
17,chain 2 K19D,~5.4
18,chain 2 L52E,~19
19,chain 2 A45Y,~9
20,chain 2 T38A,~13
21,chain 2 Y54A,~14
22,chain 2 R15A,~5.3
23,chain 2 A64Y,~14
24,chain 2 E57A,~12
